Experimental data as given in paper PMC3542637.

Tests used:
Experiment in all cases: purified protein
purified protein [1] = substrate: C[C@H](O)[C@H]1OC(=O)[C@@H](O)[C@@H]1O; format: biochemical, Burkholderia multivorans; conditions: pH 8.3, 2.5 mM BICINE, 0.2 M NaCl, 1% DMSO, 30 °C
purified protein [2] = substrate: C[C@H]1C[C@@H](O)[C@H](O)C(=O)O1; format: biochemical, Burkholderia multivorans; conditions: pH 7.1, 2.5 mM MOPS, 0.2 M NaCl, 1% DMSO, 30 °C
purified protein [3] = substrate: O=C1O[C@@H](CO)[C@@H](O)[C@@H]1O; format: biochemical, Burkholderia multivorans; conditions: pH 8.3, 2.5 mM BICINE, 0.2 M NaCl, 1% DMSO, 30 °C
purified protein [4] = substrate: O=C1O[C@H](CO)[C@@H](O)[C@@H]1O; format: biochemical, Burkholderia multivorans; conditions: pH 8.3, 2.5 mM BICINE, 0.2 M NaCl, 1% DMSO, 30 °C
purified protein [5] = substrate: O=C1O[C@H]([C@@H](O)CO)[C@@H](O)[C@@H]1O; format: biochemical, Burkholderia multivorans; conditions: pH 8.3, 2.5 mM BICINE, 0.2 M NaCl, 1% DMSO, 30 °C
purified protein [6] = substrate: NC(=O)c1ccc[n+]([C@@H]2O[C@H](COP(=O)(O)OP(=O)(O)OC[C@H]3O[C@@H](n4cnc5c(N)ncnc54)[C@H](O)[C@@H]3O)[C@@H](O)[C@H]2O)c1; format: biochemical, Burkholderia multivorans; conditions: 200 μM L-fucose, pH 8.0, 50 mM BICINE, 30 °C, varied: cofactor
purified protein [7] = substrate: NC(=O)c1ccc[n+]([C@@H]2O[C@H](COP(=O)(O)OP(=O)(O)OC[C@H]3O[C@@H](n4cnc5c(N)ncnc54)[C@H](OP(=O)(O)O)[C@@H]3O)[C@@H](O)[C@H]2O)c1; format: biochemical, Burkholderia multivorans; conditions: 200 μM L-fucose, pH 8.0, 50 mM BICINE, 30 °C, varied: cofactor
purified protein [8] = substrate: C[C@H](O)[C@H]1OC(=O)[C@@H](O)[C@@H]1O; format: biochemical, Burkholderia ambifaria; conditions: pH 8.3, 2.5 mM BICINE, 0.2 M NaCl, 1% DMSO, 30 °C
purified protein [9] = substrate: C[C@H]1C[C@@H](O)[C@H](O)C(=O)O1; format: biochemical, Burkholderia ambifaria; conditions: pH 7.1, 2.5 mM MOPS, 0.2 M NaCl, 1% DMSO, 30 °C
purified protein [10] = substrate: O=C1O[C@@H](CO)[C@@H](O)[C@@H]1O; format: biochemical, Burkholderia ambifaria; conditions: pH 8.3, 2.5 mM BICINE, 0.2 M NaCl, 1% DMSO, 30 °C
purified protein [11] = substrate: O=C1O[C@H](CO)[C@@H](O)[C@@H]1O; format: biochemical, Burkholderia ambifaria; conditions: pH 8.3, 2.5 mM BICINE, 0.2 M NaCl, 1% DMSO, 30 °C
purified protein [12] = substrate: O=C1O[C@H]([C@@H](O)CO)[C@@H](O)[C@@H]1O; format: biochemical, Burkholderia ambifaria; conditions: pH 8.3, 2.5 mM BICINE, 0.2 M NaCl, 1% DMSO, 30 °C

B1: BmulJ_04915 (Burkholderia multivorans ATCC 17616) (protein)
chain: MGALRIDSHQHFWRYRAADYPWIGAGMGVLARDYLPDALHPLMHAQALGASIAVQARAGRDETAFLLELACDEARIAAVVGWEDLRAPQLAERVAEWRGTKLRGFRHQLQDEADVRAFVDDADFARGVAWLQANDYVYDVLVFERQLPDVQAFCARHDAHWLVLDHAGKPALAEFDRDDTALARWRAALRELAALPHVVCKLSGLVTEADWRRGLRASDLRHIEQCLDAALDAFGPQRLMFGSDWPVCLLAASYDEVASLVERWAESRLSAAERSALWGGTAARCYALPEPADARL
Km (purified protein [1]): 1400 ± 200 µM | kcat (purified protein [1]): 140 ± 8 s⁻¹ | Km (purified protein [2]): 130 ± 30 µM | kcat (purified protein [2]): 994 ± 64 s⁻¹ | Km (purified protein [3]): 1500 ± 300 µM | kcat (purified protein [3]): 14 ± 1 s⁻¹ | Km (purified protein [4]): 700 ± 50 µM | kcat (purified protein [4]): 59 ± 2 s⁻¹ | Km (purified protein [5]): 1100 ± 200 µM | kcat (purified protein [5]): 32 ± 2 s⁻¹

B2: BmulJ_04919 (Burkholderia multivorans ATCC 17616) (protein)
chain: MDLNLQDKVVIVTGGASGIGGAISMRLAEERAIPVVFARHAPDGAFLDALAQRQPRATYLPVELQDDAQCRDAVAQTIATFGRLDGLVNNAGVNDGIGLDAGRDAFVASLERNLIHYYAMAHYCVPHLKATRGAIVNISSKTAVTGQGNTSGYCASKGAQLALTREWAVALREHGVRVNAVIPAEVMTPLYRNWIATFEDPEAKLAEIAAKVPLGRRFTTPDEIADTAVFLLSPRASHTTGEWLFVDGGYTHLDRALV
Km (purified protein [6]): 28 ± 4 µM | Km (purified protein [7]): 4.0 ± 0.5 µM | kcat (purified protein [7]): 11 ± 0.2 s⁻¹ | kcat/Km (purified protein [7]): 3e+06 M⁻¹ s⁻¹

B3: Bamb_1224 (Burkholderia ambifaria AMMD) (protein)
chain: MTFRIDAHQHFWQMASRDGYWPPQTLDAIYRDFGPQDLEPLLARSGVQRTVVVQSLPTQEDTRYLLDVASRTSFVAAVVGWVDLKSTDAPADIASLARDPKFRGIRPMLQDLADDDWIDDPVLEPAIDAMLAHDLAFDALVTPRHLPALLAFARRYPRLRIVIDHAAKPPIASGRSEAWHVAMSELAAHPNVHCKLSGLWTEAGPHPDLLRVEPYVRAVCDWFGASRLIWGSDWPVSRLAGHFGDYGAWLAWCEQCCDRFLGPDARARVFGGNACHFYRIDRPSGDQHAQ
Km (purified protein [8]): 900 ± 100 µM | kcat (purified protein [8]): 89 ± 4 s⁻¹ | Km (purified protein [9]): 210 ± 20 µM | kcat (purified protein [9]): 1530 ± 47 s⁻¹ | Km (purified protein [10]): 1300 ± 300 µM | kcat (purified protein [10]): 6.0 ± 0.5 s⁻¹ | Km (purified protein [11]): 800 ± 100 µM | kcat (purified protein [11]): 19 ± 1 s⁻¹ | Km (purified protein [12]): 1300 ± 100 µM | kcat (purified protein [12]): 55 ± 2 s⁻¹
